In the DeepSol protein solubility set:

assay: soluble on expression in E. coli; label from the status in PepcDB or PDB records

Row | Sequence | soluble on expression in E. coli
1 | MGHHHHHHSHIHRIDSTEVIYQPRRKRAKLIGKYLMGDLLGEGSYGKVKEVLDSETLCRRAVKILKKKKLRRIPNGEANVKKEIQLLRRLRHKNVIQLVDVLYNEEKQKMYMVMEYCVCGMQEMLDSVPEKRFPVCQAHGYFCQLIDGLEYLHSQGIVHKDIKPGNLLLTTGGTLKISDLGVAEALHPFAADDTC | not soluble
2 | MGHHHHHHSHMADIPSFQGTTLTRDTVRQLVSDIFIYKMPFNIELGLELQQFEADKAVLTFARQDKLIGNAAQKILHGGVIAAGLDVAAGLVCVGNTLLRHETISDQEFHHRLARMGTIDMRVDYLRPGYGERFTITSTLLRGGNKIAVARAELHNEQGSHLASATATYIVG | soluble
3 | MGHHHHHHSHMAIPITVLDCDLLLYGRGHRTLDRFKLDDVTDEYLMSMYGFPRQFIYYLVELLGANLSRPTQRSRAISPETQVLAALGFYTSGSFQTRMGDAIGISQASMSRCVANVTEALVERASQFIRFPADEASIQALKDEFYGLAGMPGVMGVVDCIHVAIKAPNAEDLSYVNRKGLHSLNCLMVCDIRGTLMTVETNWPGSLQDCAVLQQSSLSSQFEAGMHKDSWLLGDSSFFLRTWLMTPLHIPETPAEYRYNMAHSATHSVIEKTFRTLCSRFRCLDGSKGALQYSPEKSSHIILACCVLHNISLEHGMDVWSSPMTGPMEQPPEEEYEHMESLDLEADRIRQELMLTHFS | not soluble
4 | MGHHHHHHSHMANSAGSMANSAGSKEFAYQNKVEELTSYAVQIANEFQSGQVDMRRLYPYQDILSTRKTQFIIFNEEQQPYFLPEGFHHPPREQLKKSEWNKLKKGQTVTIRADGRFDDEVSLVAQPIFVQNEFKGAVLLISPISGVEQMVNQ | not soluble
5 | MGHHHHHHSHMAQLMEVLSVTPTQSPENNDLISYNSVWVACQQMPQIPRDNKAAALLMLTKNVDFVKDAHEEMEQAVEECDPYSGLLNDTEENNSDNHNHEDDVLGFPSNQDLYWSEDDQELIIPCLALVRASKACLKKIRMLVAENGKKDQVAQLDDIVDISDEISPSVDDLALSIYPPMCHLTVRINSAKLVSVLKKALEITKASHVTPQPEDSWIPLLINAIDHCMNRIKELTQSELEL | not soluble
6 | MGHHHHHHSHMASLAVSNWPKPMPLIPCLSWSTASGVFTTGVLSKPINWRELEKQYYTQTVYEEEIIHMLEYCGTDSFKMGQEFVKHFTSSADKLTNLNLVSRTLNLDISNQVVSQKPADCHNSSKTSVSATSEGLLLQDTSKMKRFNQTLSTNKSGYTSRNPQSYHLLSKEQSRNSLRKESLIFMKGVMDECTHVANFSVPVDPSLIIVVQAKEDAYIPRTGVRSLQEIWPGCEIRYLEGGHISAYLFKQGLFR | soluble
7 | MGHHHHHHSHMDNAEAQFTTALRLTNHQELWAFIVTNLASVYIREGNRHQEVLYSLLERINPDHSFPVSSHCLRAAAFYVRGLFSFFQGRYNEAKRFLRETLKMSNAEDLNRLTACSLVLLGHIFYVLGNHRESNNMVVPAMQLASKIPDMSVQLWSSALLRDLNKACGNAMDAHEAAQMHQNFSQQLLQDHIEACSLPEHNLITWTDGPPPVQFQAQNGPNTSLASLL | not soluble
8 | MGHHHHHHSHMEEERRDDYKFLRIQDAFKALHLHVNLIGVIVELGFSNGSDCSCTLKIVDPWYSGSGLPVKFVARTIRDLPRVESIGDIILLSRVKIVLINRKITALCNETTSSSFALFNGKHSVDSIPYQSSPKFLMREQDKNFLSNLREWMITYKFEDGS | not soluble
9 | MGHHHHHHSHMEKRKPTIQNIEVSDHTAELSLRVDADILDFQGHFSHFPLLPGVTQIDWALFYAVQYLNTPKVFKGMEVIKFQEPILPNADVCLSLSWDNEREKLTFKYTSKNGETLVTHSSGKMKLGESRE | soluble
10 | MGHHHHHHSHMGSELIGRLAPRLGLAEPDMLRKAEEYLRLSRVKCVGLSARTTETSSAVMCLDLAASWMKCPLDRAYLIKLSGLNKETYQSCLKSFECLLGLNSNIGIRDLAVQFSCIEAVNMASKILKSYESSLPQTQQVDLDLSRPLFTSAALLSACKILKLKVDKNKMVATSGVKKAIFDRLCKQLEKIGQQVDREPGDVATPPRKRKKIVVEAPAKEMEKVEEMPHKPQKDEDLTQDYEEWKRKILENAASAQKATAE | not soluble
11 | MGHHHHHHSHMGYKLQDLTDVQIMARLQEESLRQDYASTSASVSRHSSSVSLSSGKKGTCSDQEYDQYSLEDEEEFDHLPPPQPRLPRCSPFQRGIPHSQTFSSIRECRRSPSSQYFPSNNYQQQQYYSPQAQTPDQQPNRTNGDKLRRSMPNLARMPSTTAISSNISSPVTVRNSQSFDSSLHGAGNGISRIQSCIPSPGQLQHRVHSVGHFPVSIRQPLKATAYVSPTVQGSSNMPLSNGLQLYSNTGIPTPNKAAASGIMGRSALPRPSLAINGSNLPRSKIAQPVRSFLQPPKPLSSLSTLRDGNWRDGCY | not soluble
12 | MGHHHHHHSHMHGSPVEVKIQSRSSPPTMPPLPPINPGGPRPVSFTPTALSNGINHSPPTLNGAPSPPQRFSNGPASSTSSALTNQQLPATCGARQLSKLKRFLTTLQQFGNDISPEIGEKVRTLVLALVNSTVTIEEFHCKLQEATNFPLRPFVIPFLKANLPLLQRELLHCARAAKQTPSQYLAQHEHLLLNTSIASPADSSELLMEVHGNGKRPSPESCIIHLKSMGVASRHEYFSGTLQMPAHPVRNSTLENLWVDCSRSLRSTVLPFP | not soluble
13 | MGHHHHHHSHMHPDCGFLLNKDVGNIAKYDIRVKNLKSRLRGGKMRYQEEEARLASFRNWPFYVQGISPCVLSEAGFVFTGKQDTVQCFSCGGCLGNWEEGDDPWKEHAKWFPKCEFLRSKKSSEEITQYIQSYKGFVDITGEH | soluble
14 | MGHHHHHHSHMITREEIANVLDQPVYDGDGNKIGDAKHVFFDDMTGRPEWVSVKTGMFGSTESFVPIRDAALVQDHLEVPYGKDQVKGAPSVDVDAGGHLSETEEHRLYDYYGINWDSVLSEAERTDDDRFAAGPGTAGAAGTAGAAGLAGTAGAAGAAGTAGGRTGREDAMRREGMRGDEGAMRREGMRGDEAMTRSEEQMHIGVERHESGRARLRKYVVTEEVQQTVPVTHEEVRVVREPITDANRDEALAGPEISEAEHEVTLHAERPVVETETVPVERVRMTTEELTENETVRGQVRKERIEAETESFTEGETKNARDDKRRGGK | soluble
15 | MGHHHHHHSHMKIELSMQPWNPGYSSEGATAQETYTCPKMIEMEQAEAQLAELDLLASMFPGENELIVNDQLAVAELKDCIEKKTMEGRSSKVYFTINMNLDVSDEKMAMFSLACILPFKYPAVLPEITVRSVLLSRSQQTQLNTDLTAFLQKHCHGDVCILNATEWVREHASGYVSRDTSSSPTTGSTVQSVDLIFTRLWIYSHHIYNKCKRKNILEWAKELSLSGFSMPGKPGVVCVEGPQSACEEFWSRLRKLNWKRILIRHREDIPFDGTNDETERQRKFSIFEEKVFSVNGARGNHMDFGQLYQFLNTKGCGDVFQMFFGVEGQ | not soluble
16 | MGHHHHHHSHMKRMAENELSRSVNEFLSKLQDDLKEAMNTMMCSRCQGKHRRFEMDREPKSARYCAECNRLHPAEEGDFWAESSMLGLKITYFALMDGKVYDITEWAGCQRVGISPDTHRVPYHISFGSRIPGTRGRQRATPDAPPADLQDFLSRIFQVPPGQMPMGTSLQLLSLPLEPLQPLSPTAQYPREKPNLSGGRK | not soluble
17 | MGHHHHHHSHMKWASENGASVEGFEMVNFKEEGFGLRATRDIKAEELFLWVPRKLLMTVESAKNSVLGPLYSQDRILQAMGNIALAFHLLCERASPNSFWQPYIQTLPSEYDTPLYFEEDEVRYLQSTQAIHDVFSQYKNTARQYAYFYKVIQTHPHANKLPLKDSFTYEDYRWAVSSVMTRQNQIPTEDGSRVTLALIPLWDMCNHTNGLTPEDSFALAVASA | not soluble
18 | MGHHHHHHSHMLACCAIYSPVRCAFPYTETERRFTCKRRIFRIILTLCGRENMKIRALLVAMSVATVLTGCQNMDSNGLLSSGAEAFQAYSLSDAQVKTLSDQACQEMDSKATIAPANSEYAKRLTTIANALGNNINGQPVNYKVYMAKDVNAFAMANGCIRVYSGLMDMMTDNEVEAVIGHEMGHVALGHVKKGMQVALGTNAVRVAAASAGGIVGSLSQSQLGNLGEKLVNSQFSQRQEAEADDYSYDLLRQRGISPAGLATSFEKLAKLEEGRQSSMFDDHPASAERAQHIRDRMSADGIK | not soluble
